This data set is described as follows: amyloid nucleation score (Sup35N fusion, yeast selection) (log enrichment); library NNK3; higher = more nucleation; inactive = no reads after selection. Summed up: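 Plasmid inserts were Illumina-sequenced at input and output from psi-negative yeast expressing Sup35N fused to peptides of 20 random codons. The yeast were induced with 100 μM copper sulfate for 24 hours and grown 7 days at 30°C on medium lacking adenine and uracil, and sequences with under 100 input reads were excluded. Nucleation score is the DiMSum log enrichment of output over input reads, centred on the mode score of non-aggregating sequences.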

The values below come from the supplement of paper PMC12042874.

± gives the uncertainty stated by the source.

Turning to SHIFCSFFKSSYLNSGWQHG, the amyloid nucleation score entry is “inactive”.

Turning to GWMNACT, the amyloid nucleation score worked out at 0.356 ± 0.34.

As for DSLKSKFSKVLGPLNRACFY, the amyloid nucleation score entry is “inactive”.

For the substance MSSFLTPAGRFSRYFTFVCF, the amyloid nucleation score entry was “inactive”.

For SWMVQLVNTGVRWLVLANDA, the amyloid nucleation score result is “inactive”.

As for GRGYSSSTLWVLGWFD, the amyloid nucleation score entry is “inactive”.

For the substance NLLVLTDSVYIPLSHPYPNR, the amyloid nucleation score stood at 0.493 ± 0.22.

GPSAGGFCQLRGVDVDV: the amyloid nucleation score result was “inactive”.

GWRFMLFRAQLFIWMIICFC: the amyloid nucleation score result is “inactive”.

On to IIHEFFSTQLILYDCIDRWF, for which the amyloid nucleation score result is “inactive”.

Regarding GLNMPLSFSPKRRHFVREWK, the amyloid nucleation score result was “inactive”.

As for LKCFEMNYQYGRRLNNG, the amyloid nucleation score result is “inactive”.

DSGSHNDCNGCSNY: the amyloid nucleation score entry was “inactive”.

For the substance SHGHDSVTRNRQGPCGIRIY, the amyloid nucleation score result was “inactive”.

As to NSRSFNTFKYNYGMLGFGVA, the amyloid nucleation score was -0.612 ± 0.84.

Turning to LSPWVSMILVKFKLHLYLRR, the amyloid nucleation score entry is “inactive”.

YWRELDSIQCNLFRGQPFNL: the amyloid nucleation score entry is “inactive”.

Turning to HSCFCQCVSARYCDYSSVTR, the amyloid nucleation score result was “inactive”.

Consider NAHSHGYGSVPGR, for which the amyloid nucleation score result is “inactive”.

Regarding RRKYW, the amyloid nucleation score entry was “inactive”.

As for FLFTFKIHPLGGMFGVLILS, the amyloid nucleation score result is “inactive”.

Take GGNVCRGVKIIVMWAMIFVM: the amyloid nucleation score entry is “inactive”.

For the substance GIFCGLTGLIDGMRTQHSEL, the amyloid nucleation score was 0.816 ± 0.12.

For TVHSHKWCSLVGGPIRISWT, the amyloid nucleation score result is “inactive”.

For the substance TCHDGHGAGRTVSGVFGGVA, the amyloid nucleation score entry was “inactive”.

On to SNVSVHGMIESMLWLSTRDI, for which the amyloid nucleation score result is “inactive”.

For the substance QSRMPCSLFILVNGDHDDMA, the amyloid nucleation score entry is “inactive”.

Consider YMPFYDSCVRHAYRSSFR, for which the amyloid nucleation score came out at 0.038 ± 0.43.

In the case of SVVEPRRTGTWNSTGVRSQH, the amyloid nucleation score entry is “inactive”.

For the substance CVRFPANLSFGSDRKAKLS, the amyloid nucleation score entry was “inactive”.

As for THRVTTRCLLRLLRWIRM, the amyloid nucleation score result was “inactive”.

Consider KFVDDRKVCLVLHH, for which the amyloid nucleation score result was “inactive”.

LFCRVWSFGVLMCFE: the amyloid nucleation score entry is “inactive”.

As to MMSDNDISLRRYFVQCLKSS, the amyloid nucleation score result was “inactive”.

As to NLQLESFYWFGPRGVRKHLE, the amyloid nucleation score result was “inactive”.

As to SNGCKMYDKHVLYW, the amyloid nucleation score entry is “inactive”.

As to GPIINVIS, the amyloid nucleation score result is “inactive”.

For the substance EMDTCIQWLSRVLSGPDSFF, the amyloid nucleation score is -0.72 ± 0.8.

With FTNNI, the amyloid nucleation score entry is “inactive”.

Regarding HCKRYNVERKNFCDLHNQRY, the amyloid nucleation score entry is “inactive”.

Substance KVFMGRCCWLCSPY came in with an amyloid nucleation score of 1.42 ± 0.1.

Substance YHMVCNCDWVGVAFYVSYGR showed an amyloid nucleation score of 1.91 ± 0.065.

For the substance YNANFFWYLADGIFDA, the amyloid nucleation score result was “inactive”.

For the substance VYSLFKVELISILGRMKITK, the amyloid nucleation score entry is “inactive”.

Consider KYQLPRDNFS, for which the amyloid nucleation score result is “inactive”.

Consider VYDWRGRVGD, for which the amyloid nucleation score result is “inactive”.

Regarding LLLGDVVVMTEAYYIMSPVP, the amyloid nucleation score result is “inactive”.

For the substance LVFSNFYGYFRASC, the amyloid nucleation score entry is “inactive”.

Consider WRNMTI, for which the amyloid nucleation score result was “inactive”.

With TFVHAYTGWMEFVV, the amyloid nucleation score result was “inactive”.

Turning to ILILFYLRFHNIRRYTCTFR, the amyloid nucleation score result was “inactive”.

In the case of TTSLKTHVLPRNVFRFEPYM, the amyloid nucleation score result is “inactive”.

DRDMVCMSEL: the amyloid nucleation score result was “inactive”.

With LLLPWCYFRRKMGRR, the amyloid nucleation score entry was “inactive”.

For the substance YRRAWRTIILKCTCLNQHV, the amyloid nucleation score was 0.2 ± 0.42.

For MIRMIMLSRSDRPGVSRKLD, the amyloid nucleation score entry is “inactive”.

For GPSWVTHESRKCTCQARDKV, the amyloid nucleation score entry was “inactive”.

For SSQFTHEETGFCDVVPVVCG, the amyloid nucleation score result was “inactive”.

For the substance ISSYFNMCDLCVDVRHTYRR, the amyloid nucleation score entry is “inactive”.

IIDYRDQRVLESLRFYVLCS: the amyloid nucleation score entry is “inactive”.

As to QVFSN, the amyloid nucleation score result is “inactive”.

Consider RWLTVKPSRIRLWGCSWGLR, for which the amyloid nucleation score result is “inactive”.

For the substance CVYIDGSIAVGWYMKFILTF, the amyloid nucleation score result was “inactive”.

On to TFHSM, for which the amyloid nucleation score result is “inactive”.

Turning to YACETVMSFVYMITFIRYLR, the amyloid nucleation score result was “inactive”.

For GSFGPIFQWNTIGALGFFG, the amyloid nucleation score stood at 2.19 ± 0.059.

QIMIIISMRVSNMCGVSYLG: the amyloid nucleation score result is “inactive”.

For YSFWIVFMRY, the amyloid nucleation score result is “inactive”.

Consider KNTSCWAATSADQRRVDFRR, for which the amyloid nucleation score entry was “inactive”.

NLVWICFFNGRNYLSMRDRA: the amyloid nucleation score was determined as 1.34 ± 0.15.

On to QGHNHYVTILRFIWFLRPAM, for which the amyloid nucleation score result is “inactive”.

SSWPN: the amyloid nucleation score entry was “inactive”.

Turning to LNSGIS, the amyloid nucleation score amounted to 0.103 ± 0.24.

As to TYGTCVGQK, the amyloid nucleation score result was “inactive”.

For TALWYSYFSTKNDMSLQFAP, the amyloid nucleation score was -0.673 ± 1.1.

As to TQGSLTILLGLVTEMLCAYS, the amyloid nucleation score result was “inactive”.

On to KWKVAKVGDWQAAPTLGSHR, for which the amyloid nucleation score result is “inactive”.

For FWGFPRKSYADMMGSTRGSA, the amyloid nucleation score result is “inactive”.

Regarding FVERTRKRVNVRRNRHVTET, the amyloid nucleation score result was “inactive”.

With RYPSDSIGFISLDTGGCGVR, the amyloid nucleation score result is “inactive”.

Regarding VHGVRV, the amyloid nucleation score result is “inactive”.

For the substance CYSKYSS, the amyloid nucleation score result is “inactive”.

For the substance NTINVSPVLIDN, the amyloid nucleation score result was “inactive”.

For the substance SSFNIPMPSNYPKMIDLLFT, the amyloid nucleation score entry is “inactive”.

Take YARYMYYATNKINNWVVLKP: the amyloid nucleation score entry is “inactive”.

As to YGNVIFRFVRADERI, the amyloid nucleation score is 0.314 ± 0.35.

Turning to NWPGMLFNLSLVERRSWRRN, the amyloid nucleation score entry is “inactive”.

For LPAWKKTAFYFRYHGPFVRS, the amyloid nucleation score result was “inactive”.

Regarding DVARPCSI, the amyloid nucleation score entry is “inactive”.

Regarding NRIGSKTCKFFMALGM, the amyloid nucleation score result was “inactive”.

WTSHPYWSL: the amyloid nucleation score entry is “inactive”.

For the substance AVNFCMLWGVYASSQKNLGF, the amyloid nucleation score amounted to 0.585 ± 0.32.

Regarding TDTLCDWYLPNRRWIKDNEW, the amyloid nucleation score result was “inactive”.

In the case of FSYCSLWGKCVCDIFTNGQL, the amyloid nucleation score came out at 2.81 ± 0.051.

On to LSGSLTTISIITGGVDCD, for which the amyloid nucleation score result was “inactive”.

On to MLGWCYLMTTCE, for which the amyloid nucleation score result was “inactive”.

On to CYMVEDRRIDSRSAVSWRYV, for which the amyloid nucleation score entry is “inactive”.

Turning to IWISYRMVSFEASKQSVVL, the amyloid nucleation score result was “inactive”.

As to RPFSNAGYAFNHGFFV, the amyloid nucleation score entry is “inactive”.

Take MSENLDKLKTFPPALE: the amyloid nucleation score entry was “inactive”.

RFWRCWAMINR: the amyloid nucleation score entry was “inactive”.

As for SSIAMHCILIVFLKGLCVFR, the amyloid nucleation score entry is “inactive”.

As for GCKLIEWDVLIVDPMPARGR, the amyloid nucleation score result was “inactive”.

RHGSCMTVCVYSSMLSYRST displayed an amyloid nucleation score of 0.163 ± 0.31.

As for FYSTAMCGED, the amyloid nucleation score entry was “inactive”.

Turning to GNCTSVLDPSELVVYHCEGS, the amyloid nucleation score entry is “inactive”.

RGPFGLYSLDILLVSQVFRR showed an amyloid nucleation score of 0.502 ± 0.23.

As to SGKGKCVYNVLRQGFFSKMS, the amyloid nucleation score result is “inactive”.

Turning to YGYFHTRGYVAFE, the amyloid nucleation score entry was “inactive”.

Turning to LLQICGVYYYPIVSYSPDDF, the amyloid nucleation score result is “inactive”.

In the case of QVRNSDRFSCIGSANIRKSL, the amyloid nucleation score result was “inactive”.

For the substance LGWLLVTNWTSTYAGSLHDG, the amyloid nucleation score result was “inactive”.

With LVSVGSDWDCLHFISGKFPG, the amyloid nucleation score entry was “inactive”.

Consider IKAVSYTVSVSPPCFSSKSH, for which the amyloid nucleation score was 0.402 ± 0.18.

Substance TTTCHLRIKSNMRLSQEWLG registered an amyloid nucleation score of 1.17 ± 0.12.

Regarding GSALCHCLCNMEVMSYFVAF, the amyloid nucleation score result was “inactive”.

As to VRYFSKSGGRNPNVGRVVPV, the amyloid nucleation score entry is “inactive”.

On to QLSHKACLWLSCSSGIPLGS, for which the amyloid nucleation score result was “inactive”.

RPMRDCIGHSQS: the amyloid nucleation score result is “inactive”.

In the case of QSYIRKQFRIQSHISFSDNS, the amyloid nucleation score result was “inactive”.

In the case of WISNTRCVLFVGN, the amyloid nucleation score entry is “inactive”.

As for VCGASGCKWAVTNSRHDGNG, the amyloid nucleation score result is “inactive”.

For KVSDKPHHKRGVGLDLMMMD, the amyloid nucleation score entry was “inactive”.

Regarding MVNAWLNRYKMWNVFIALNR, the amyloid nucleation score result is “inactive”.

Consider LIKWFSFRWLVTILVIDQTY, for which the amyloid nucleation score entry is “inactive”.

On to TYHSCY, for which the amyloid nucleation score entry was “inactive”.

Take VTYNTSSGRVYGTGHNWFQG: the amyloid nucleation score result is “inactive”.

On to NSCYRRHMCWCFSKAEFLTL, for which the amyloid nucleation score entry is “inactive”.

Consider RCYKKVYLMLAVRLAPFGLG, for which the amyloid nucleation score result is “inactive”.
